Data published in patent US20260209316A1.

Experiments:
[1] = biological target: thermolysin-cleaved SUDV GP (GP(S)THL) (Sudan virus (SUDV)) (UniProt Q7T9D9); experiment: BLI, Fab, pH 7.4
[2] = biological target: thermolysin-cleaved SUDV GP (GP(S)THL) (Sudan virus (SUDV)) (UniProt Q7T9D9); experiment: BLI, Fab, pH 5.3
[3] = biological target: full-length Sudan GP (GPFL) (Sudan virus (SUDV)) (UniProt Q7T9D9); experiment: BLI, Fab, pH 7.4
[4] = biological target: full-length Sudan GP (GPFL) (Sudan virus (SUDV)) (UniProt Q7T9D9); experiment: BLI, Fab, pH 5.3

Binder | Kd [1] [nM] | koff [1] [s⁻¹] | kon [1] [M⁻¹ s⁻¹] | Kd [2] [nM] | koff [2] [s⁻¹] | kon [2] [M⁻¹ s⁻¹] | Kd [3] [nM] | koff [3] [s⁻¹] | kon [3] [M⁻¹ s⁻¹] | Kd [4] [nM] | koff [4] [s⁻¹] | kon [4] [M⁻¹ s⁻¹]
Fab generated from 291S (Fab, V domains shown) VH: QVQLQESGPGLVKPSQTLSLTCTVSGGSFSSGFYWSWIRQRPGKGLEWVGYTYYSGSTYYNPSLQSRVTISVDTSKNQFSLNLSSVTAADTAVYHCARADYGGLFDYWGQGILVTVSS VL: QSVLTQPSSLSASPGASASLTCTLRSGINVGTYRIFWYQQKPGSPPQFLLRYNSDSDKQQGSGVPSRFSGSKDASANAGILLISGLQSEDEADYYCMIWHTSAWVFGGGTKLTVL | 0.19 | 5.1e-05 | 264000 | 0.67 | 0.000166 | 248000 | – | – | – | – | – | –
Fab generated from 246S (Fab, V domains shown) VH: QVQLVQSGAEVKKPGSSVKVSCKASGDTFSTYAITWVRQAPGQGLEWMGRIIPILGVTNYAQKFQGRVTFTADKSTITAYLELVNLRSEDTAVYYCTRDGYGGRDLLLNYYWGQGTLVTVSS VL: EIVLTQSPGLLFWFPGERATLSCRASQSVSSSKLAWYQQKPGQAPRLLIYGASSRAPGIPDRFSGSGSGTDFTLTINRLEPEDFAVYFCQQYGSAQWTFGQGTKVDFK | – | – | – | – | – | – | 23.2 | 0.000493 | 21200 | 34.2 | 0.000384 | 11200
